Changes are numbered by the printed parent chain.
Experiments:
[1] = target: T1, human IL-13 (source not stated for the assay) (human, UniProt P35225 35-146, limits assumed); assay: cell-based or functional assay
marmoset IL-13 = marmoset IL-13 (marmoset, UniProt A0A8I3WT33 35-145); assay: KinExA, n-curve analysis
[2] = target: T1, human IL-13 (source not stated for the …); assay: cell-based or functional assay; remark: listed apart in the source
[3] = target: T1, human IL-13 (source not stated for the …); assay: cell-based or functional assay; remark: listed apart in the source
native human IL-13 [4] = target: T2, native human IL-13 (human, UniProt P35225 35-146, limits assumed); assay: KinExA kinetic, direct method
T2 construct: also called hIL-13

native human IL-13 [5] = target: T2, native human IL-13; assay: KinExA, equilibrium in solution
native macaque IL-13 = target: T3, native macaque IL-13 (macaque monkey); assay: KinExA, equilibrium in solution
T3 construct: also called macaque monkey IL-13

native human IL-13 [6] = target: T2, native human IL-13; assay: KinExA kinetic, injection method
[7] = target: T4, Human IL-13-Mouse IL-13 Helix B (human IL-13 with mouse Helix B, UniProt P35225 35-146, limits assumed); assay: ELISA on secreted IL-13 chimeric proteins
T4 construct: Expressed and secreted chimeric protein; also called Mo HelixB
T4 chain: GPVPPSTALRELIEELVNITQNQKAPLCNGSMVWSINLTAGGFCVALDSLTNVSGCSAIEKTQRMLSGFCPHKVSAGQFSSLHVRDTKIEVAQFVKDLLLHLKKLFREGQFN

[8] = target: T5, Human IL-13-Mouse IL-13 Helix C (human IL-13 with mouse Helix C, UniProt P35225 35-146, limits assumed); assay: ELISA on secreted IL-13 chimeric proteins
T5 construct: Expressed and secreted chimeric protein; also called Mo HelixC
T5 chain: T4 chain with G42M, F43Y, V45A, D48E, T51I, E60Y, K61R, M65I, S67H, F69L

mouse IL-13 = target: T6, mouse IL-13 (mouse, UniProt P20109 22-131, limits assumed); assay: epitope mapping with mouse IL-13 chimeric molecules (ELISA)
T6 construct: also called murine IL-13
T6 sequence (looked up): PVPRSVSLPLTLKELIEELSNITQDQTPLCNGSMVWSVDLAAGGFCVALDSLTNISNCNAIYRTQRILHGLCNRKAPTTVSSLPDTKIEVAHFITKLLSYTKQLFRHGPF

native human IL-13 [9] = target: T2, native human IL-13; assay: KinExA kinetic, direct method; koff calculated from kon and KD
native human IL-13 [10] = target: T2, native human IL-13; assay: KinExA kinetic, injection method; koff calculated from kon and KD
[11] = target: T7, Recombinant Human IL-13 (R & D 213-IL-005) (human, UniProt P35225 35-146); assay: SPR (Biacore 2000), mAb captured on goat anti-human surface, IL-13 (R&D) injected, 1:1 model
T7 construct: also called IL-13 antigen (R&D Systems)

native human IL-13 [12] = target: T2, native human IL-13; assay: KinExA; KD from the equilibrium experiments, printed in the kinetic table (injection method row)
[13] = target: T8, Human IL-13-rabbit Fc fusion protein (human IL-13 fused to rabbit Fc); assay: ELISA on plates coated with IL-13RbFc, detection with rabbit anti Hu IgG Fc HRP (paragraph 267 to paragraph 269)
T8 construct: also called IL-13-RbFc; IL-13 Rb Fc

[14] = target: T7, Recombinant Human IL-13 (R & D …); assay: SPR (Biacore 2000) high resolution, mAb captured on goat anti-human Fc pAb, IL-13 (R&D Systems) 12.6-0.394 nM, 23 C, global 1:1 fit
native human IL-13 [15] = target: T2, native human IL-13; assay: KinExA; KD from the equilibrium experiments, printed in the kinetic table (direct method row); KinExA kinetic, direct method row; KD taken from the equilibrium experiments

T8 sequence (chain, as listed by the source limits assumed): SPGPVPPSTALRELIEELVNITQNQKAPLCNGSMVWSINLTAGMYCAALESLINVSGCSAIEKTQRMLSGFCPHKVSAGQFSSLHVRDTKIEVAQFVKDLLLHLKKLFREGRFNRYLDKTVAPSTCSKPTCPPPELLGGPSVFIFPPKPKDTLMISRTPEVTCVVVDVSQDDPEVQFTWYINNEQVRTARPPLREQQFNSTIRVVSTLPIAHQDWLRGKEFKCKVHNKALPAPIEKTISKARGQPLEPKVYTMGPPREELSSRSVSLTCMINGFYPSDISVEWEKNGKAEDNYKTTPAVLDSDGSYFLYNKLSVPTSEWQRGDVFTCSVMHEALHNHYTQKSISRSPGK
Chain of marmoset IL-13 (A0A8I3WT33 entry or part of it): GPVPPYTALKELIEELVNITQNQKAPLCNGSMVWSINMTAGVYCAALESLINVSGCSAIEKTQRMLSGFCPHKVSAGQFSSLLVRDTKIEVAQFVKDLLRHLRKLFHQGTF
T3 sequence (Q864V6 19-132): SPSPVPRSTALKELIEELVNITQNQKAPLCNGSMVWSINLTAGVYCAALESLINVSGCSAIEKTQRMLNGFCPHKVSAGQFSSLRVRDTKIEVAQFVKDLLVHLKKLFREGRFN

B1: mAb 623 (antibody, V domains shown)
VH: EVQLVESGGGLVKPGGSLRLSCAASGFTFSNAWMSWVRQAPGKGLEWVGRIRSEIDGGTTNYAAPVKGRFTISRDDSKNTLYLQMNSLKTEDTAVYYCATDQVGAYYGDYYGMDVWGQGTTVTVSS
VL: SYELTQPPSVSVSPGQTARITCSGDALPEKYAYWYQQKSGQAPVLVIYEDSKRPSGIPERFSGSSSGTMATLTISGAQVEDEADYYCHSTDSSGNHGVFGGGTKLTVLG
notes: also called sc623
EC50, HDLM-2 proliferation assay (3H-thymidine) [1]: 4.5 nM | EC50, L-1236 proliferation assay (3H-thymidine) [1]: 0.39 nM | IC50, IL-13-induced CD23 expression on whole blood B cells (FACS) [1]: 6.2 nM | Kd (marmoset IL-13): 0.403 nM | IC50, IL-13 induced eotaxin release, Average [2]: 0.036 nM | IC50, IL-13 induced eotaxin release, n = 1 [2]: 0.031 nM | IC50, IL-13 induced eotaxin release, n = 2 [2]: 0.04 nM | IC50, IL-13 induced eotaxin release, n = 3 [2]: 0.035 nM | IC50, eotaxin production by HDFa cells, 300 pM IL-13 [3]: 56 pM | IC50, eotaxin production by HDFa cells, 600 pM IL-13 [3]: 113 pM | kon (native human IL-13 [4]): 1.1e+07 M⁻¹ s⁻¹ | Kd (native human IL-13 [5]): 0.024 nM | Kd (native macaque IL-13): 0.037 nM | kon (native human IL-13 [6]): 1.5e+07 M⁻¹ s⁻¹ | binding result [7]: binds | binding result [8]: binds | binding result (mouse IL-13): no binding | koff (native human IL-13 [9]): 0.00027 s⁻¹ | koff (native human IL-13 [10]): 0.00036 s⁻¹ | Kd [11]: 0.052 nM | koff [11]: 0.00025 s⁻¹ | kon [11]: 4.9e+06 M⁻¹ s⁻¹ | Kd (native human IL-13 [12]): 0.024 nM | binding result [13]: binds | Kd [14]: 0.034 nM | kon [14]: 7.3e+06 M⁻¹ s⁻¹ | Kd (native human IL-13 [15]): 0.024 nM
